# Patent US20260335456A1, “ANTIBODY-DRUG CONJUGATE HAVING CAMPTOTHECIN-BASED DRUG LINKED TO ANTIBODY HAVING LOW ANTIGEN-BINDING AFFINITY THROUGH LINKER” (PINOTBIO, INC., priority 2022, published 2026)
# Read-outs that look alike come from different tables or passages of the source.
# How the values were obtained:
# FaDu cell line = assay: Western blot of DDX5 and anti-apoptotic proteins in FaDu; assay type: cell-based; details: 0, 10, 100 nM
# Method: 1-1: Confirmation of Suppressive Activity of Expression of Cancer-Related Survival Genes of DDX5, Survivin, Mcl-1, XIAP and cIAP2 Through Western Blot
# 200,000 FaDu cell lines were seeded per well in a 6-well plate and incubated at constant temperature (37 °C, 5% CO2). […] It was incubated at constant temperature (37 °C, 5% CO2) for 24 hours. The well was treated with 100 μL of RIPA buffer dissolved in protease inhibitor cocktail. […] Protein concentration was determined through protein assay.
# Electrophoresis was performed on the gel at 60V.
# 7 sheets of activated filter paper, PVDF membrane, gel and 7 sheets of filter paper were placed in order in the cassettes of the Trans-Blot® Turbo™ Transfer System, and the lid was closed, and after being inserted into the machine, the protocol started.
# The transferred membrane was immersed in blocking buffer and incubated at constant temperature (RT, 1h). Next, it was incubated at 4 °C overnight in primary antibody solution. It was rinsed with TBST buffer for 3 minutes (repeated 3 times). Incubation was performed (RT, 1h) in a secondary antibody solution conjugated with HRP. It was rinsed with TBST buffer for 3 minutes (repeated 3 times).
# After soaking the membrane in the ECL substrate for 3 to 5 minutes, the signal was determined by using the ChemiDoc™ MP Imaging System.
# A549 cell line = assay: Western blot of DDX5 and anti-apoptotic proteins in A549; assay type: cell-based
# [1] = system: MDA-MB-453 (HER2++) and FaDu (HER2+) cell lines; assay: Cell viability test in MDA-MB-453 and FaDu; assay type: cell-based; details: 3 days, FIG. 10
# Method: Cell viability assay was performed on MDA-MB-453 (HER2++) cell line and FaDu (HER2+) cell line in the same manner as Example 1-2.
# [2] = Lactone to carboxylate form conversion in pH 7.4; assay type: physicochemical
# Method: 3-2. Lactone to Carboxylate Form Conversion in pH 7.4
# Afterwards, it was centrifuged at 4 °C, 2 minutes, and 13,000 RCF conditions, and the supernatant was used as a sample.
# The column used was Cortecs C18 2.7 μm, 4.6×50 mm Column, and analysis was conducted under the following conditions. 1) 20 minutes: 5% B, 2) sample injection, 3) 2 minutes: 5% B, 4) 10 minutes: 5% B→50% B, 5) 1 minute: 50% B.
# In order to measure changes over time, the sample chamber was maintained at 37 °C, and the sample was set to be injected every measurement time. The measurement times were 0, 20, 40, 60, 90, 120, 180, 240, 300, 360, 480, 600 and 720 minutes.
# The content was calculated from the peak area of each lactone and carboxylate. Since the absorption coefficients of lactone and carboxylate are different, the lactone area was obtained by multiplying the carboxylate area by the equation below.
# A549 = assay: Cell viability assay in A549; assay type: cell-based; details: A549, FIG. 9
# Method: After 24 hours, 100 μL of the drug at 9 concentrations (serial dilution of 1/5 from 1,000 nM) was treated with the cells. […] In this case, a control group that was not treated with the drug (drug concentration 0) was also prepared. It was cultured at constant temperature (37 °C, 5% CO2) for 3 or 6 days. 100 μL of CellTiter-Glo reagent (using CellTiter-Glo® Luminescent Cell Viability Assay kit (Promega, G7571)) was added to each well and pipetted. After incubation at constant temperature (RT) for 10 minutes, luminescence was measured.
# [3] = PBX-7016 pharmacokinetic profile in NOD SCID mice; assay type: in vivo
# relapsed glioblastoma = details: cited from earlier work
# patients [4] = details: phase 1 studies; cited from earlier work
# EGFR [5] = details: cited from earlier work
# [6] = system: normal skin and kidney cells; details: compared with cetuximab; cited from earlier work
# patients [7] = details: cited from earlier work
# Trop2 = biological target: T1, Trop2 (Homo sapiens, UniProt P09758); assay: PBX-001 in vitro and in vivo efficacy versus Trodelvy; details: FIGS. 11 to 13
# T1 sequence (P09758 27-323): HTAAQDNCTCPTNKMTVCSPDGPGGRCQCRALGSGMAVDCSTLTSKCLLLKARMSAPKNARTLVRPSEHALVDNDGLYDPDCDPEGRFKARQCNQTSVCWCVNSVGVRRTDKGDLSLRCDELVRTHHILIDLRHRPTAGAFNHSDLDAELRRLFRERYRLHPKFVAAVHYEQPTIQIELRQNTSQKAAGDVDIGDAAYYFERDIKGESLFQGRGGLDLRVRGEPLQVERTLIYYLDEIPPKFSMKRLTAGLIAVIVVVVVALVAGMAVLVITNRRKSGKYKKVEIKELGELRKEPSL
# non-human primate = assay: PBX-001 non-human primate toxicity study; assay type: in vivo
# FaDu Xenograft model = assay: PBX-001 in FaDu Xenograft model; assay type: in vivo; details: DAR 8, FIGS. 12 and 13
# [8] = system: cells with an ABCG2 efflux pump; assay: ABCG2 efflux pump resistance, PBX-001 versus Trodelvy; assay type: cell-based
# [9] = system: various metastatic solid tumors; details: 8 mg/kg to 18 mg/kg; cited from earlier work
# [10] = system: patients treated with Sacituzumab Govitecan; details: cited from earlier work
# [11] = system: metastatic epithelial cancers; details: cited from earlier work
# liver = details: versus parent hRS7 IgG; U.S. Pat. No. 9,629,926 B; cited from earlier work
# EGFR [12] = details: cited from earlier work; remark: listed apart in the source
compound,measurement,setting,value
CC[C@@]1(O)C(=O)OCc2c1cc1n(c2=O)Cc2c-1nc1cc3c(c4c1c2[C@@H](NC(=O)[C@@H](C)O)CC4)OCO3 [PBX-7016],DDX5 degradation ranking,FaDu cell line; FaDu and A549,"followed by 7011, 7016 and 7014"
same,expression of anti-apoptotic proteins,"FaDu cell line; Survivin, cIAP2, Mcl-1, XIAP, 24 hours","decrease in the expression of Survivin, cIAP2, Mcl-1 and XIAP as the concentration increased"
same,dual mechanism (topoisomerase I inhibition and DDX5 degradation),A549 cell line,dual MoA that acts as a degrader of DDX5 (p68)
same,DDX5 inhibition,A549 cell line; FIGS. 7 and 8,inhibits DDX5 in a concentration-dependent manner
same,"Survivin, Mcl-1 inhibition",A549 cell line; FIGS. 7 and 8,"observed to inhibit Survivin, Mcl-1"
same,comparison with PBX-7014,A549 cell line; FIGS. 7 and 8,worked better than PBX-7014
same,DDX5 degradation ranking,"A549 cell line; FaDu and A549, 0, 10, 100 nM","followed by 7011, 7016 and 7014"
same,IC50 compared to Dxd,[1],IC50 of the same or higher level than Dxd
same,rate of conversion from lactone to carboxylate form,"[2]; pH 7.4, 37 °C",0.8 % per minute
same,degraded at 3 µM,"[2]; pH 7.4, 37 °C, PBS with 10% DMSO, read-out: carboxylate form formed",> 86%
same,lactone to carboxylate conversion versus reference compounds,"[2]; pH 7.4, reference: exatecan, DXd, SN-38, FL118",faster and at a higher rate than other reference compounds
same,efficacy / IC50 in ABCG2-overexpressing cells,A549,still maintained strong efficacy
same,"plasma concentration, individual mice","[3]; IP 1 mg/kg, 4 h, Mouse 4-6",BLOQ
same,"plasma concentration, individual mice","[3]; IP 1 mg/kg, 12 h, Mouse 4-6",BLOQ
same,"plasma concentration, individual mice","[3]; IP 1 mg/kg, 24 h, Mouse 4-6",BLOQ
same,"plasma concentration, individual mice","[3]; IP 1 mg/kg, 48 h, Mouse 4-6",BLOQ
same,"plasma concentration, individual mice","[3]; IV 1 mg/kg, 4 h, Mouse 1-3",BLOQ
same,"plasma concentration, individual mice","[3]; IV 1 mg/kg, 12 h, Mouse 1-3",BLOQ
same,"plasma concentration, individual mice","[3]; IV 1 mg/kg, 24 h, Mouse 1-3",BLOQ
same,"plasma concentration, individual mice","[3]; IV 1 mg/kg, 48 h, Mouse 1-3",BLOQ
same,clearance from the blood,"[3]; intravascular or intraperitoneal, mice",cleared from the blood very quickly
ABT-414: ADC targeting EGFR variant III,monotherapy efficacy,relapsed glioblastoma,promising monotherapy efficacy
ABX-EGF: fully humanized IgG2 monoclonal antibody to EGFR,most common toxicity,patients [4],skin toxicity
same,affinity for EGFR versus cetuximab,EGFR [5],higher affinity for EGFR than cetuximab
Nimotuzumab: humanized IgG1 EGFR-targeting antibody,binding to normal skin and kidney cells,[6],much less binding than cetuximab
same,side effects severity,patients [7]; humans,only mild to moderate in severity
same,incidence of severe acneiform rash and gastrointestinal mucosal toxicity,patients [7]; patients,much lower incidence
"PBX-001: ADC of humanized anti-Trop2 antibody hRS7, FL118 and CL2A linker system",in vitro and in vivo efficacy versus Trodelvy,Trop2,better efficacy than Trodelvy
same,safety,non-human primate,excellent safety
same,anticancer efficacy and weight loss,FaDu Xenograft model,excellent anticancer efficacy without weight loss
same,resistance through ABCG2 efflux pump,[8],not affected
Sacituzumab Govitecan: humanized IgG linked to SN-38 through a pH-sensitive linker,dose-limiting toxicity,[9],neutropenia
same,"diarrhea, all grade",[10]; all treated patients,65%
same,"neutropenia, any grade",[10]; all treated patients,61%
same,febrile neutropenia,[10]; patients,7%
same,neutropenic colitis,[10]; patients,0.5%
same,"anemia, any grade",[11]; 8 mg/kg,38%
same,"anemia, grade 3 or higher",[11]; 8 mg/kg,13%
same,"constipation, any grade",[11]; 8 mg/kg,33%
same,"diarrhea, any grade",[11]; 8 mg/kg,53%
same,"diarrhea, grade 3 or higher",[11]; 8 mg/kg,4%
same,dose reductions,[11]; 8 mg/kg,19%
same,"fatigue, any grade",[11]; 8 mg/kg,61%
same,grade 3 or higher neutropenia after the first dose,[11]; 8 mg/kg,21%
same,"hair loss, any grade",[11]; 8 mg/kg,46%
same,"leukopenia, grade 3 or higher",[11]; 8 mg/kg,6%
same,"nausea, any grade",[11]; 8 mg/kg,59%
same,"neutropenia, any grade",[11]; 8 mg/kg,42%
same,"neutropenia, grade 3 or higher",[11]; 8 mg/kg,30%
same,"vomiting, any grade",[11]; 8 mg/kg,36%
same,"anemia, any grade",[11]; 10 mg/kg,42%
same,"constipation, any grade",[11]; 10 mg/kg,37%
same,"diarrhea, any grade",[11]; 10 mg/kg,62%
same,"diarrhea, grade 3 or higher",[11]; 10 mg/kg,10%
same,dose reductions,[11]; 10 mg/kg,28%
same,"fatigue, any grade",[11]; 10 mg/kg,52%
same,grade 3 or higher neutropenia after the first dose,[11]; 10 mg/kg,47%
same,"hair loss, any grade",[11]; 10 mg/kg,37%
same,"nausea, any grade",[11]; 10 mg/kg,63%
same,"neutropenia, any grade",[11]; 10 mg/kg,58%
same,"neutropenia, grade 3 or higher",[11]; 10 mg/kg,36%
same,"vomiting, any grade",[11]; 10 mg/kg,43%
same,resistance through ABCG2 efflux pump,[8],resistant
hRS7-CL2A-SN-38: Trop-2 ADC of hRS7 with CL2A-SN-38,liver uptake,liver,two-fold higher liver uptake
panitumumab: antibody drug targeting EGFR,binding affinity relative to nimotuzumab,EGFR [12],more than 10 times
